Laboratory results taken from patent US20230183753A1, “Methods of in Vitro Cell Delivery” (Intellia Therapeutics, Inc., priority 2020, published 2023).
Oligonucleotides are written 5' to 3', each unit as a sugar letter and its base; * is a phosphorothioate linkage, no mark a phosphodiester; rarer units and linkages stand in square brackets, end groups in braces. Plain capitals give the bases only. m = 2'-O-methyl; r = 2'-OH (RNA)

Columns and labels:
[1] = system: B2M, TRAC, TRBC1/2, CIITA; experiment: NGS editing profile of T cells with BC22n or Cas9 mRNA, single or four guides, LNP titration, Example 16A; assay type: cell-based, human; conditions: LNP;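 further: activated T cells exposed to LNPs 72 h after activation, kept at 37 °C, harvested on day 10 post activation, editing measured by NGS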
Method: Cells were expanded in T cell basal media for 72 hours prior to LNP transfection.
LNPs were mixed to fixed total mRNA weight ratios of 6:3:2 for editor mRNA, guide RNA, and UGI mRNA respectively as described in Table 12. […] LNP mixtures were incubated for 5 minutes at 37° C. in T cell basal media substituting 6% cynomolgus monkey serum (Bioreclamation IVT, Cat. CYN220760) for fetal bovine serum.
T cells were incubated at 37° C. with 5% CO2 for the duration of the experiment.
In total, T cells were exposed to 6 different LNPs simultaneously (editor mRNA, UGI mRNA, 4 guides).

[2] = system: B2M, CD3, MHC II; experiment: Flow cytometry of antigen negative T cells (B2M, CD3, MHC II) after BC22n or Cas9 editing, Example 16A; assay type: cell-based, human
From the text: Cells were subsequently washed, processed on a Cytoflex instrument (Beckman Coulter) and analyzed using the FlowJo software package. T cells were gated based on size, shape, viability, and antigen expression.

[3] = multiple guide delivery (four guides simultaneously), locus of the guide assayed, editor BC22n, total RNA 8.6 ng
[4] = multiple guide delivery (four guides simultaneously), locus of the guide assayed, editor BC22n, total RNA 17.2 ng
[5] = multiple guide delivery (four guides simultaneously), locus of the guide assayed, editor BC22n, total RNA 34.4 ng
[6] = multiple guide delivery (four guides simultaneously), locus of the guide assayed, editor BC22n, total RNA 68.8 ng
[7] = multiple guide delivery (four guides simultaneously), locus of the guide assayed, editor BC22n, total RNA 137.5 ng
[8] = multiple guide delivery (four guides simultaneously), locus of the guide assayed, editor BC22n, total RNA 275.0 ng
[9] = multiple guide delivery (four guides simultaneously), locus of the guide assayed, editor BC22n, total RNA 550.0 ng
[10] = multiple guide delivery (four guides simultaneously), locus of the guide assayed, editor Cas9, total RNA 8.6 ng
[11] = multiple guide delivery (four guides simultaneously), locus of the guide assayed, editor Cas9, total RNA 17.2 ng
[12] = multiple guide delivery (four guides simultaneously), locus of the guide assayed, editor Cas9, total RNA 34.4 ng
[13] = multiple guide delivery (four guides simultaneously), locus of the guide assayed, editor Cas9, total RNA 68.8 ng
[14] = multiple guide delivery (four guides simultaneously), locus of the guide assayed, editor Cas9, total RNA 137.5 ng
[15] = multiple guide delivery (four guides simultaneously), locus of the guide assayed, editor Cas9, total RNA 275.0 ng
[16] = multiple guide delivery (four guides simultaneously), locus of the guide assayed, editor Cas9, total RNA 550.0 ng
[17] = single guide delivery, editor BC22n, total RNA 8.6 ng
[18] = single guide delivery, editor BC22n, total RNA 17.2 ng
[19] = single guide delivery, editor BC22n, total RNA 34.4 ng
[20] = single guide delivery, editor BC22n, total RNA 68.8 ng
[21] = single guide delivery, editor BC22n, total RNA 137.5 ng
[22] = single guide delivery, editor BC22n, total RNA 275.0 ng
[23] = single guide delivery, editor BC22n, total RNA 550.0 ng
[24] = single guide delivery, editor Cas9, total RNA 8.6 ng
[25] = single guide delivery, editor Cas9, total RNA 17.2 ng
[26] = single guide delivery, editor Cas9, total RNA 34.4 ng
[27] = single guide delivery, editor Cas9, total RNA 68.8 ng
[28] = single guide delivery, editor Cas9, total RNA 137.5 ng
[29] = single guide delivery, editor Cas9, total RNA 275.0 ng
[30] = single guide delivery, editor Cas9, total RNA 550.0 ng

B1: G015995: guide targeting B2M (SEQ ID NO: 711) (nucleic acid)
guide: mU*mU*mA*rCrCrCrCrArCrUrUrArArCrUrArUrCrUrUrGrUrUrUrUrArGrAmGmCmUmAmGmAmAmAmUmAmGmCrArArGrUrUrArArArArUrArArGrGrCrUrArGrUrCrCrGrUrUrArUrCrAmAmCmUmUmGmAmAmAmAmAmGmUmGmGmCmAmCmCmGmAmGmUmCmGmGmUmGmCmU*mU*mU*mU
C-to-A/G % mean [1, 3]: 3.8%
C-to-T % mean [1, 3]: 27.3%
Indel % mean [1, 3]: 2.6%
C-to-A/G % mean [1, 4]: 4.1%
C-to-T % mean [1, 4]: 47.2%
Indel % mean [1, 4]: 3.0%
C-to-A/G % mean [1, 5]: 3.9%
C-to-T % mean [1, 5]: 61.2%
Indel % mean [1, 5]: 2.6%
C-to-A/G % mean [1, 6]: 2.9%
C-to-T % mean [1, 6]: 81.4%
Indel % mean [1, 6]: 1.4%
C-to-A/G % mean [1, 7]: 2.6%
C-to-T % mean [1, 7]: 90.0%
Indel % mean [1, 7]: 1.3%
C-to-A/G % mean [1, 8]: 2.2%
C-to-T % mean [1, 8]: 94.7%
Indel % mean [1, 8]: 0.8%
C-to-A/G % mean [1, 9]: 2.9%
C-to-T % mean [1, 9]: 95.9%
Indel % mean [1, 9]: 0.4%
C-to-A/G % mean [1, 10]: 1.4%
C-to-T % mean [1, 10]: 0.3%
Indel % mean [1, 10]: 5.0%
C-to-A/G % mean [1, 11]: 1.3%
C-to-T % mean [1, 11]: 0.3%
Indel % mean [1, 11]: 10.5%
C-to-A/G % mean [1, 12]: 1.1%
C-to-T % mean [1, 12]: 0.3%
Indel % mean [1, 12]: 19.3%
C-to-A/G % mean [1, 13]: 0.9%
C-to-T % mean [1, 13]: 0.3%
Indel % mean [1, 13]: 34.4%
C-to-A/G % mean [1, 14]: 0.7%
C-to-T % mean [1, 14]: 0.2%
Indel % mean [1, 14]: 51.1%
C-to-A/G % mean [1, 15]: 0.5%
C-to-T % mean [1, 15]: 0.2%
Indel % mean [1, 15]: 68.0%
C-to-A/G % mean [1, 16]: 0.4%
C-to-T % mean [1, 16]: 0.3%
Indel % mean [1, 16]: 76.7%
C-to-A/G % mean [1, 17]: 7.7%
C-to-T % mean [1, 17]: 49.5%
Indel % mean [1, 17]: 6.0%
C-to-A/G % mean [1, 18]: 6.7%
C-to-T % mean [1, 18]: 68.5%
Indel % mean [1, 18]: 4.3%
C-to-A/G % mean [1, 19]: 5.7%
C-to-T % mean [1, 19]: 79.0%
Indel % mean [1, 19]: 3.8%
C-to-A/G % mean [1, 20]: 4.6%
C-to-T % mean [1, 20]: 88.2%
Indel % mean [1, 20]: 2.5%
C-to-A/G % mean [1, 21]: 4.1%
C-to-T % mean [1, 21]: 90.6%
Indel % mean [1, 21]: 2.2%
C-to-A/G % mean [1, 22]: 3.7%
C-to-T % mean [1, 22]: 92.6%
Indel % mean [1, 22]: 2.2%
C-to-A/G % mean [1, 23]: 2.8%
C-to-T % mean [1, 23]: 95.2%
Indel % mean [1, 23]: 1.6%
C-to-A/G % mean [1, 24]: 1.2%
C-to-T % mean [1, 24]: 0.3%
Indel % mean [1, 24]: 23.7%
C-to-A/G % mean [1, 25]: 0.9%
C-to-T % mean [1, 25]: 0.3%
Indel % mean [1, 25]: 41.1%
C-to-A/G % mean [1, 26]: 0.6%
C-to-T % mean [1, 26]: 0.3%
Indel % mean [1, 26]: 59.4%
C-to-A/G % mean [1, 27]: 0.4%
C-to-T % mean [1, 27]: 0.2%
Indel % mean [1, 27]: 76.8%
C-to-A/G % mean [1, 28]: 0.2%
C-to-T % mean [1, 28]: 0.1%
Indel % mean [1, 28]: 88.2%
C-to-A/G % mean [1, 29]: 0.1%
C-to-T % mean [1, 29]: 0.1%
Indel % mean [1, 29]: 95.1%
C-to-A/G % mean [1, 30]: 0.1%
C-to-T % mean [1, 30]: 0.1%
Indel % mean [1, 30]: 97.5%
percent cells negative for antigen, B2M neg, Mean % ([2]; editor BC22n, total RNA 8.6 ng): 44.0%
percent cells negative for antigen, B2M neg, Mean % ([2]; editor BC22n, total RNA 17.2 ng): 60.8%
percent cells negative for antigen, B2M neg, Mean % ([2]; editor BC22n, total RNA 34.4 ng): 75.7%
percent cells negative for antigen, B2M neg, Mean % ([2]; editor BC22n, total RNA 68.8 ng): 83.9%
percent cells negative for antigen, B2M neg, Mean % ([2]; editor BC22n, total RNA 137.5 ng): 91.2%
percent cells negative for antigen, B2M neg, Mean % ([2]; editor BC22n, total RNA 275.0 ng): 94.4%
percent cells negative for antigen, B2M neg, Mean % ([2]; editor BC22n, total RNA 550.0 ng): 95.7%
percent cells negative for antigen, B2M neg, Mean % ([2]; editor Cas9, total RNA 8.6 ng): 13.9%
percent cells negative for antigen, B2M neg, Mean % ([2]; editor Cas9, total RNA 17.2 ng): 30.7%
percent cells negative for antigen, B2M neg, Mean % ([2]; editor Cas9, total RNA 34.4 ng): 53.4%
percent cells negative for antigen, B2M neg, Mean % ([2]; editor Cas9, total RNA 68.8 ng): 68.7%
percent cells negative for antigen, B2M neg, Mean % ([2]; editor Cas9, total RNA 137.5 ng): 82.1%
percent cells negative for antigen, B2M neg, Mean % ([2]; editor Cas9, total RNA 275.0 ng): 89.3%
percent cells negative for antigen, B2M neg, Mean % ([2]; editor Cas9, total RNA 550.0 ng): 91.3%
